Data: patent publication US11578136B2, “Compositions and methods for treating cancer” (INNATE PHARMA, priority 2017, dated 2023)
Substitutions are numbered along the chain they refer to. Entries after “also recorded” stand apart in the source; their conditions may differ.

Key:
[1] = target: T1, CD39 mutants transfected in Hek-293T cells (Homo sapiens, UniProt P49961, E142K/M139A/R138A); test: Epitope mapping: binding to CD39 mutants by flow cytometry; settings: mutant 19: R138A, M139A, E142K; vs wild-type CD39
T1 construct: expressed in transfected cells; host or cells: HEK-293T cells
T1 sequence (P49961 1-510 R138A/M139A/E142K): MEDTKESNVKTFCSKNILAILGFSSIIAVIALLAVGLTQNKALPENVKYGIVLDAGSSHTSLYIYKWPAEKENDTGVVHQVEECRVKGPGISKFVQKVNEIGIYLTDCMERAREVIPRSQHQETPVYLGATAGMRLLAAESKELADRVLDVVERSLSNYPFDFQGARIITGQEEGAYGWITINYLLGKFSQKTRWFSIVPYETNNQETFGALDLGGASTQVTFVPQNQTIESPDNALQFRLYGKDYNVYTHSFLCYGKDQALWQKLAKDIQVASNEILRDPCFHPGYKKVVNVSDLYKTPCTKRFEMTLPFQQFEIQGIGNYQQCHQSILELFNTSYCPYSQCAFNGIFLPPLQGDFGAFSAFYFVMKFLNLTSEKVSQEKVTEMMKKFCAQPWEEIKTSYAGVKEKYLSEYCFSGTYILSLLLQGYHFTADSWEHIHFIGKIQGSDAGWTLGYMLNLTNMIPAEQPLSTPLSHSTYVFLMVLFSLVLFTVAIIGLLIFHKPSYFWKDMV
Method: (§1) CD39 mutants were generated by PCR. The sequences amplified were run on agarose gel and purified using the Macherey Nagel PCR Clean-Up Gel Extraction kit (reference 740609). The purified PCR products generated for each mutant were then ligated into an expression vector, with the ClonTech InFusion system. The vectors containing the mutated sequences were prepared as Miniprep and sequenced. After sequencing, the vectors containing the mutated sequences were prepared as Midiprep using the Promega PureYield™ Plasmid Midiprep System. HEK293T cells were grown in DMEM medium (Invitrogen), transfected with vectors using Invitrogen's Lipofectamine 2000 and incubated at 37° C. in a CO2 incubator for 48 hours prior to testing for transgene expression. The targeted amino acid mutations in the table 1 below are shown using numbering of SEQ ID NO: 1.
(§2) In order to define the epitopes of anti-CD39 antibodies, we designed CD39 mutants defined by substitutions of amino acids exposed at the molecular surface over the surface of CD39. Mutants were transfected in Hek-293T cells, as shown in the table 1, using numbering of SEQ ID NO: 1.
(§3) Dose-ranges of I-394 (10-2.5-0.625-0.1563-0.0391-0.0098-0.0024-0.0006 μg/ml) are tested on the 20 generated mutants by flow cytometry. […] Mutant 5 contains amino acid substitutions at residues Q96, N99, E143 and R147.
(§4) Mutants were transfected in Hek-293T cells, as shown in the table 1, using numbering of SEQ ID NO: 1. Dose-ranges of antibodies I-394 were tested on the 20 mutants by flow cytometry. […] Mutant 19 includes substitutions at residues R138, M139 and E142. The core epitope of I-394 thus includes one or more (or all of) residues R138, M139 and E142.
(§5) Mutants were transfected in Hek-293T cells, as shown in the table 1, using numbering of SEQ ID NO: 1.Dose-ranges of test antibodies (10-2.5-0.625-0.1563-0.0391-0.0098-0.0024-0.0006 μg/ml) are tested on the 20 generated mutants by flow cytometry.

[2] = target: T2, CD39 mutants transfected in Hek-293T cells (Homo sapiens, UniProt P49961, E143A/N99A/Q96A/R147E); test: as above; settings: mutant 5: Q96A, N99A, E143A, R147E; vs wild-type CD39
T2 construct: expressed in transfected cells; host or cells: HEK-293T cells
T2 sequence (P49961 1-510 Q96A/N99A/E143A/R147E): T1 sequence (P49961 1-510 R138A/M139A/E142K) with Q96A, N99A, A138R, A139M, K142E, E143A, R147E
Method: as §1, §2, §3, §4, §5

[3] = target: T3, soluble recombinant human CD39 protein (Homo sapiens, UniProt P49961); test: Inhibition of the enzymatic activity of soluble CD39 (Cell Titer Glo); assay type: biochemical
T3 construct: made in house; host or cells: CHO cells
T3 sequence (P49961 with tags, fused parts or gaps): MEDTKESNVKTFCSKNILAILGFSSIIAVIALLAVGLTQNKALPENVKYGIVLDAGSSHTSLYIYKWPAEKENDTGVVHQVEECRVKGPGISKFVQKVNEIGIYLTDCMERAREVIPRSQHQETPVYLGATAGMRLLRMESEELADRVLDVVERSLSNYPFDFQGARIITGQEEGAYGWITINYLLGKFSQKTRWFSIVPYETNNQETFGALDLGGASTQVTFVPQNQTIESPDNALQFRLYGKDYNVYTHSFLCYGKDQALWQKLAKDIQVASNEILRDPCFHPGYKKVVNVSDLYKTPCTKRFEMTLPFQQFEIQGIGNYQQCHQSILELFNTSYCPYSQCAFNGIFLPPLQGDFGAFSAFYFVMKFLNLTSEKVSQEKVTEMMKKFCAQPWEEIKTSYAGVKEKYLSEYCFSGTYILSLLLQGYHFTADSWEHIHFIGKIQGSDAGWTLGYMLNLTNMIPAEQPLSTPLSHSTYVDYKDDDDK
Method: The inhibition by antibodies of the enzymatic activity of soluble CD39 protein produced was evaluated using Cell Titer Glo™ (Promega, reference G7571) that allows assessment of ATP hydrolysis through use of a reagent that generates a luminescent signal proportional to the amount of ATP present. In this way, inhibition of the soluble-CD39-meidatd ATP hydrolysis can be assessed. Briefly, dose ranges of anti-CD39 antibodies from 100 μg/ml to 6×10^−3 μg/ml were incubated with 400 ng/ml of soluble recombinant human CD39 protein having the amino acid sequence described in the Methods section (SEQ ID NO: 45), for 1 h at 37° C. 20 μM ATP was added to the plates for 30 additional minutes at 37° C. before addition of CTG (Cell Titer Glo) reagent. Emitted light was quantified using an Enspire™ luminometer after a short incubation period of 5 min in the dark. Anti-CD39 antibody efficacy was determined by comparing emitted light in presence of antibody with ATP alone (maximal light emission) and ATP together with soluble CD39 protein (minimal light emission).

## I-394: anti-CD39 antibody, VH SEQ ID NO: 6, VL SEQ ID NO: 7; human IgG1 Fc with L234A/L235E/G237A/A330S/P331S
[1]
  binding to cells expressing mutant 19 of CD39: complete loss of binding
[2]
  binding to cells expressing mutant 5 of CD39: strongly reduced binding
[3]
  maximum inhibition achieved, soluble CD39: 74.9%
[3]; ranking among I-394, I-395, I-396
  relative potency of inhibition of soluble CD39 (FIG. 2B): greatest potency
[3]; result in words, 400 ng/ml sCD39, 20 μM ATP
  inhibition of the enzymatic activity of soluble CD39 protein: strong inhibition; also recorded: inhibits
